Results as given in the DeepSol protein solubility set.

Assay: soluble on expression in E. coli; label from the status in PepcDB or PDB records
In the case of “KRRAALNLRIFATEGAMMLGVTLSRLEGRSFIERSPGRRPFFKPGPLSPRLSRAFVNLSRLQRGGSFADPFCGTGGFAIEACLLGASRIACGDLDWAMVRGGPLNLSRYCPPGIWFYSAWNAAKLPLSSNSVDSIATDPPYGRSTTTGRMGYLSLTRAFLNTAVEVLRSEGWIVYAGPTRMSPETLAEDAGLRVVKVIEMFVHGSLTRSIVVARFG”, the “soluble on expression in E. coli” value is reported as “not soluble”.
In the case of “STEDSVKAVKRAADDDPHTETEHEDKKLKTDQEERKYPKKKVALLMAYSGKGYYGMQRNARNSQFKTIEDELVTALVGARCIPEGHAEEMKKMSFQRSARTDKGVSAVGRVVSLKVWMIENILEKINAHLPPRIRVLGCKRVTGGFNSKNNCYARTYSYMLPTVAFSPKDYNQEDTSFRLTSDTLQTVNRLFCLYKGTHNFHNFTSQKGHRDPSAMRYITHMSCGEPFIRKDVEFAVITVRGQSFMMHQIRKMIGLVIAVVKGYVDEGVMEKSWGEEKVGVSKAPGLGLVLERVHFDGYNKRFGGDGIHETLEWTEQEEAIADFKEKHIYPTIVDTELNERSMVNWMTSLCIHDFEETATGNQDRKDDDEDGSASD”, the “soluble on expression in E. coli” value is reported as “soluble”.
In the case of “MQLQKLVNMFGGDLTRRYGQKVHKLTLHGGFSCPNRDGTIGRGGCTFCNVASFADEAQQHRSIAEQLAHQANLVNRAKRYLAYFQAYTSTFAEVQVLRSMYQQAVSQANIVGLCVGTRPDCVPDAVLDLLCEYKDQGYEVWLELGLQTAHDKTLHRINRGHDFACYQRTTQLARQRGLKVCSHLIVGLPGEGQAECLQTLERVVETGVDGIKLHPLHIVKGSIMAKAWEAGRLNGIELEDYTLTAGEMIRHTPPEVIYHRISASARRPTLLAPLWCENRWTGMVELDRYLNEHGVQGSALGRPWLPPTE”, the “soluble on expression in E. coli” value is reported as “soluble”.
In the case of “MGSDKIHHHHHHMDQSFQVNLNRLRYFHAILEHGSIRAAAERLNTAPSVVSRQLQLLESEIGAPLFERRQHGMIATEAATLLVEYTHACRIGLEQFHESLHGELRGRVEIALTVGYVEDLMDSVITGFLHRHPHVAVELNVRTADGVVDDVLRKRAHIGLTYNPSLPPEIRECLSVEHPTFLAVAPDHPLAKRGEPLELRDAVRYPLALMPAPYYGVGQIVHTVAHAENIPLAPRLVTNSVPAMRRFVRSGNGVAFLTRLLVEDDLERGEIVALRMRNPLFNSPCGKVLVHNERALPRAANEILARIVRDLPSFKS”, the “soluble on expression in E. coli” value is reported as “not soluble”.
For “MNITQAAEQAIRLWFNTPDPMQRLHMAKTIRTWIRQDKFAQVDQANMPNCVQQILNIIYDGLKPQPVQLPISYYAQLWYNLLDILRRFTFLPIISPYIHQVVQMFCPRENGPQDFRELICNLISLNWQKDPHMKHCANQVFQIFNCIIMGVKNEKLRTEFAQHLKFEKLVGTLSEYFNPQVHPGMINPAIFIIFRFIISKDTRLKDYFIWNNNPHDQPPPPTGLIIKLNAVMIGSYRLIAGQNPETLPQNPELAHLIQVIIRTFDLLGLLLHDSDAIDGFVRSDGVGAITTVVQYPNNDLIRAGCKLLLQVSDAKALAKTPLENILPFLLRLIEIHPDDEVIYSGTGFLSNVVAHKQHVKDIAIRSNAIFLLHTIISKYPRLDELTDAPKRNRVCEIICNCLRTLNNFLMMWIPTPNGETKTAGPNEKQQVCKFIEIDILKKLMSCLSCEGMDTPGLLELRSTILRSFILLLRTPFVPKDGVLNVIDENRKENLIGHICAAYSWVFRQPNNTRTQSTKQQLVERTISLLLVLMEQCGAEKEVAQYSYSIDCPLNLLNGNQVKPTFIHNVLVVCDKILEHCPTRADIWTIDRPMLEGLTNHRNSDIAKAANSLLSRFPEN”, the “soluble on expression in E. coli” value was “soluble”.
In the case of “MKLPKEGDFITIQSYKHDGRLHRTWRDTMVLKTTENAVIGVNDHTLVTEADGRRWVTREPAIVYFHKKYWFNIIAMIRDNGISYYCNLASPYVLDQEALKYIDYDLDVKVFADGEKKLLDVDEYEIHKKEMHYSPDIDYILKEHVKILVDWINNGKGPFSQSYVNIWYKRYLELRNR”, the “soluble on expression in E. coli” value is reported as “not soluble”.
For “EIRVFETAPEGLKILKDSEVVINTTTKEVAKNNQFSVSDASGTYNMVNDVKVG”, the “soluble on expression in E. coli” value was “soluble”.
For “MAKKKIVAVIQARMGSSRLPGKVLMTVAGKPLLEHIIDRLRRSRTLDDIVIATSDKPCDDPLVDFAQTRGVTLVRGSEDNVLLRFNKAAEEVDADVIIRVTGDAPLVDPEVMDRLVRTLLQEGAEYCTIEAGINSIHEGFCTFTRGALKRLMTEAPDDPVAIEHVTAYFIAHPDKFHIARIPVGNEHRFKGARLSVDTPADVQFFDELYRLLGVPAGDADIADVVRLLRNNPHLLQINQHVYQKKATDRSHKVLIRCDGDSRTGLGHVVRCLALAGELREKQGCGIIFAMASGEPGMKMVRQADFPLERQEDADEGEWMDGLISRHHPDVLILDIRNDLPVEKVDSWREDGILVVGIDDPTPRRLAADLLFYPPIPQISELNWNNFNGEICSGWEWVLLRKQFCAPCPPRNNNPPALLLTMGGSDPANFTVRVLRVLDELQNDFETIVVIGAGFVHEEDLQQFLSQARRHYRIEREVSDMASLMRQADLAIASFGVTAYELAASGVPAVYLCLTPDHARSASKFVDDRLAFSCGVLEECSNERIIESTLSLLDSRELRHEVGRRACATVDGYGATRIATKIVEKLERMHSSHGLEHHHHHH”, the “soluble on expression in E. coli” value was “not soluble”.
With “MKSKVAIVRTKPSTVLEDYHRLMNLAEYQNYISKDVDTALKINISWHFFYPGSSTTPWQLEGVIRALKRDGYNPELIHGCHNRTVVIDAHLGERENKQINVIKAHNLRNIHLYEGEEWIDIREAVGDLTKKFLCLNEVYPKGFSIPKRFIGENIIHLPTVKTHVFTTTTGAMKNAFGGLLNEKRHWTHPVIHETLVDLLMIQKKIHKGIFAVMDGTFAGDGPGPRCMVPHVKNVLLASADQVAIDAVAAKLMGFDPLKDCKYIRLAHDAGLGCGDVRQIEIVGDVDALNENWNFVGPYKKMTFASKCQHLIYWGPLKKPVEWTLKTILAPWSYIASVVYHDMYWYPKNYGRVEEILNSDWGRLFANWEQLQLPADDLSVPGWEHVGDKPLKLDKETSKMIRKAFRVLGTAIREAPEFSAKKSKKACK” the “soluble on expression in E. coli” value was “soluble”.
In the case of “MGKLIDIPIVVESGQKYKTSQGVTAIKDGIKSSGQDHERLPKPKWLRIVNHTTPAYSQVKEQVQKHRLATVCEEAKCPNISECWSHGTATIMLMGAVCTRACRFCSVDTGNPHGWLDAEEPENTAETVALMNLDYVVLTSVNRDDLPDGGANHYAKTIRAIKKRSPRTKVEALTPDFQGSERDVAVLLDSGVDVFAQNVETVERLTHPVRDNRAGYQQTLNVLAFAKKYRPDVLTKTSLMLGLGETDEEIIQTMDDLRTHHVDILTLGQYLQPTKNHLPIARYVTPETFSELRQIGLKKGFFEVASGPLVRSSYRADRVFKRDNLGLDV”, the “soluble on expression in E. coli” value is reported as “not soluble”.
With “MLSNDILRSVRYILKANNTDLARILALGNVDATPEQIAIWLRKEEEEGFQRCPDIVLSSFLNGLIYEKRGKDEAAPALTAERRINNNIVLKKLRIAFSLKTDDILAILTGQLFRVSMPEITAMMRAPDHKNFRECGDQFMRYFLRGLAAREHAAK” the “soluble on expression in E. coli” value was “not soluble”.
In the case of “MAKRPSTSKNPAEDDELIIDECRRKLDDDESNDVGAYFEDDNQQGTSYRTPFMPSHLGLIQDQSPDLTMKDLFNRKRSRPQSTGFIDHSQARYYDRYKQQEYTRRNDFMKYCHVCRKKTVGKLRVLPGDLRMRKVWILRSNLDEERSAELWLREMACEGSHGGEFCEAHFPAGSQHMKGNQLIPLDVRPEEGRHSVVEDIQFDFDAIHLQCVFCGRDGPLATMLPFIRNRAKRLRWIEQLASGNETYKNRLLHALRGGVTQFLCDYHISDSSFEINGFGEWRLLKNALPDPRLVASDKRGERKYLVDKCRDEMFWERAMWKSADLLSQNGTADDEDIIVGDDIRQFLTNSVPSEAEQVLHPILQIKQNVEKKLNEADLQPGTSGTSGESNATADNLKIGISEEGVEYSDDSDEENELIEKMGDIPYSKRLCQVCSAVEPIGNEFPNNFPYKFSIRTWPFDECRHKKWLEIMDWPPEFEESMKTLWQKRKTEGALSDSYHFCPINVCQSHLDFRQLPERMEEWHQTFCLLCDTCMSDKSFLVGIPHNFETRTKWANSLFPVKEGNKFQLKKISWLRRRFLRSKPTRYRICVYHFNRKAFQVNQDDKIVLDAEALPLPIDSDDFDLTPRGPNSVCKCVLCDDWKKVEDMVPFRAPHSEAERSFLIDIVIHSDKMTIKKALASLAKTNRPALICNIHFPDGIDPFSIIAERRLMYGVQSECVLCAHANDCTAMIPFPGPDDEKLRTKWINSMCREPWIYRYLSTRLEKPGRHYLCASHFNRNSLRYHAGLGLWRRAAACPVLACTTDEERQEVWDLSKSQPLYHPLILETFDDNGSGRLDYDDVLNFLGTERMRQIETELNFHGRNDSLLRRENRKKNTGRSFYADMPNIYEHGELQEVEDQMEGEEEEVVQEECIIYEEEHHLDEAEELEVIEEEEVVEEIVEQVVDDGVVVGEEM”, the “soluble on expression in E. coli” value is reported as “not soluble”.
